Among the data in patent EP1562972B1 are IC50 and Relative Binding (ratio (IC50 wild-type / IC50 mutant)) values, retold here.

The target in experiment [1] is human neonatal Fc receptor (FcRn), recombinant GPI-linked, on NS0 cells (human) (UniProt P55899). The experiment in a line: competition flow cytometry, NS0 cells with human FcRn, vs biotinylated OST577-IgG2M3, FBB pH 6.0. (In general: A flow cytometer gives signals particle by particle.)
For experiment [2], the target named is rhesus neonatal Fc receptor (FcRn), recombinant GPI-linked, on NS0 cells (rhesus) (UniProt H9Z6D2). The experiment in a line: competition flow cytometry, NS0 cells with rhesus FcRn, vs biotinylated OST577-IgG2M3, FBB pH 6.0.
For experiment [3], the target named is human neonatal Fc receptor (FcRn), recombinant GPI-linked, on NS0 cells (human) (UniProt P55899). The experiment in a line: competition flow cytometry, NS0 cells with human FcRn, vs biotinylated HuEP5C7-IgG2M3, FSB pH 6.0.
For experiment [4] the target is unchanged. The experiment in a line: competition flow cytometry, NS0 cells with human FcRn, vs biotinylated HuEP5C7-IgG2M3, FBB pH 6.0.
Experiment [5] has the same target. The experiment in a line: competition flow cytometry, NS0 cells with human FcRn, vs biotinylated OST577-IgG1, FBB pH 6.0.
The target in experiment [6] is rhesus neonatal Fc receptor (FcRn), recombinant GPI-linked, on NS0 cells (rhesus) (UniProt H9Z6D2). The experiment in a line: competition flow cytometry, NS0 cells with rhesus FcRn, vs biotinylated OST577-IgG1, FBB pH 6.0.

Sequence of human neonatal Fc receptor (FcRn), recombinant GPI-linked, on NS0 cells (human) (P55899 24-297, chain 1 of 2): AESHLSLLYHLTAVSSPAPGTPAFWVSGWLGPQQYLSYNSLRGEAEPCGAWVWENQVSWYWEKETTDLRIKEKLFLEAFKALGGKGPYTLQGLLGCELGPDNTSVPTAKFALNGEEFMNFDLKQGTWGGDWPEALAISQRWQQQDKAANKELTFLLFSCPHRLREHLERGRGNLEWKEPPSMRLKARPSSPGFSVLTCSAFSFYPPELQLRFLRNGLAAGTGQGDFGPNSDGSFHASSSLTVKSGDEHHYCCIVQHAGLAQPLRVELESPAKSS
Sequence of human neonatal Fc receptor (FcRn), recombinant GPI-linked, on NS0 cells (human) (P61769 21-119, chain 2 of 2, further chain): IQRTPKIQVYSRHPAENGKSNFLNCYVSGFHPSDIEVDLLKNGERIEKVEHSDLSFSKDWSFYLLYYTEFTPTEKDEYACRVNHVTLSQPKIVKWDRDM

On to “OST577-IgG2M3 T250Q/M428L double mutant (antibody)”, for which the IC50 in experiment [1] came out at 0.43 µg/mL. In addition, in experiment [2], the IC50 was 0.554 µg/mL and the Relative Binding (ratio (IC50 wild-type / IC50 mutant)) was found to be 27.

OST577-IgG2M3 L314A mutant (antibody): in experiment [3], the IC50 was 68.7 µg/mL and the Relative Binding (ratio (IC50 wild-type / IC50 mutant)) came out at 0.16.

Take OST577-IgG2M3 M428F mutant (antibody): the IC50 in experiment [3] came to 3.4 µg/mL; in experiment [4] it was 2.97 µg/mL.

As for OST577-IgG1 M428F mutant (antibody), in experiment [5], the IC50 is 3.44 µg/mL and the Relative Binding (ratio (IC50 wild-type / IC50 mutant)) was 4.

With OST577-IgG2M3 L314R mutant (antibody), in experiment [3], the IC50 was determined as 102 µg/mL.

In the case of “OST577-IgG1 T250Q/M428L double mutant (antibody)”, in experiment [5], the IC50 was 0.351 µg/mL and the Relative Binding (ratio (IC50 wild-type / IC50 mutant)) stood at 29. In experiment [6], the IC50 amounted to 0.236 µg/mL and the Relative Binding (ratio (IC50 wild-type / IC50 mutant)) was 37.

On to OST577-IgG1 M428L mutant (antibody), for which the IC50 in experiment [5] came to 0.896 µg/mL; in experiment [6], 0.629 µg/mL. In addition, the Relative Binding (ratio (IC50 wild-type / IC50 mutant)) in experiment [6] is 14.

As for OST577-IgG2M3 L314Q mutant (antibody), in experiment [3], the IC50 was 32 µg/mL and the Relative Binding (ratio (IC50 wild-type / IC50 mutant)) was determined as 0.33.

For OST577-IgG2M3 L314W mutant (antibody), in experiment [3], the IC50 was 20.2 µg/mL and the Relative Binding (ratio (IC50 wild-type / IC50 mutant)) is 0.53.

Turning to OST577-IgG2M3 M428L mutant (antibody), the IC50 in experiment [1] was determined as 1.79 µg/mL; in experiment [2], 1.92 µg/mL. Moreover, the Relative Binding (ratio (IC50 wild-type / IC50 mutant)) was determined as 6.7 in experiment [1] and 7.7 in experiment [2].

Usually IC50 stands for the concentration that inhibits the measured activity by half.
